Data reported in publication PMC4156536.

Target: RyR1 with a His10 tag inserted at position 500 (His^500-RyR1) (rabbit) (UniProt P11716)
Assay: FRET or BRET

Sequence of UniProt P11716 (P11716 whole entry): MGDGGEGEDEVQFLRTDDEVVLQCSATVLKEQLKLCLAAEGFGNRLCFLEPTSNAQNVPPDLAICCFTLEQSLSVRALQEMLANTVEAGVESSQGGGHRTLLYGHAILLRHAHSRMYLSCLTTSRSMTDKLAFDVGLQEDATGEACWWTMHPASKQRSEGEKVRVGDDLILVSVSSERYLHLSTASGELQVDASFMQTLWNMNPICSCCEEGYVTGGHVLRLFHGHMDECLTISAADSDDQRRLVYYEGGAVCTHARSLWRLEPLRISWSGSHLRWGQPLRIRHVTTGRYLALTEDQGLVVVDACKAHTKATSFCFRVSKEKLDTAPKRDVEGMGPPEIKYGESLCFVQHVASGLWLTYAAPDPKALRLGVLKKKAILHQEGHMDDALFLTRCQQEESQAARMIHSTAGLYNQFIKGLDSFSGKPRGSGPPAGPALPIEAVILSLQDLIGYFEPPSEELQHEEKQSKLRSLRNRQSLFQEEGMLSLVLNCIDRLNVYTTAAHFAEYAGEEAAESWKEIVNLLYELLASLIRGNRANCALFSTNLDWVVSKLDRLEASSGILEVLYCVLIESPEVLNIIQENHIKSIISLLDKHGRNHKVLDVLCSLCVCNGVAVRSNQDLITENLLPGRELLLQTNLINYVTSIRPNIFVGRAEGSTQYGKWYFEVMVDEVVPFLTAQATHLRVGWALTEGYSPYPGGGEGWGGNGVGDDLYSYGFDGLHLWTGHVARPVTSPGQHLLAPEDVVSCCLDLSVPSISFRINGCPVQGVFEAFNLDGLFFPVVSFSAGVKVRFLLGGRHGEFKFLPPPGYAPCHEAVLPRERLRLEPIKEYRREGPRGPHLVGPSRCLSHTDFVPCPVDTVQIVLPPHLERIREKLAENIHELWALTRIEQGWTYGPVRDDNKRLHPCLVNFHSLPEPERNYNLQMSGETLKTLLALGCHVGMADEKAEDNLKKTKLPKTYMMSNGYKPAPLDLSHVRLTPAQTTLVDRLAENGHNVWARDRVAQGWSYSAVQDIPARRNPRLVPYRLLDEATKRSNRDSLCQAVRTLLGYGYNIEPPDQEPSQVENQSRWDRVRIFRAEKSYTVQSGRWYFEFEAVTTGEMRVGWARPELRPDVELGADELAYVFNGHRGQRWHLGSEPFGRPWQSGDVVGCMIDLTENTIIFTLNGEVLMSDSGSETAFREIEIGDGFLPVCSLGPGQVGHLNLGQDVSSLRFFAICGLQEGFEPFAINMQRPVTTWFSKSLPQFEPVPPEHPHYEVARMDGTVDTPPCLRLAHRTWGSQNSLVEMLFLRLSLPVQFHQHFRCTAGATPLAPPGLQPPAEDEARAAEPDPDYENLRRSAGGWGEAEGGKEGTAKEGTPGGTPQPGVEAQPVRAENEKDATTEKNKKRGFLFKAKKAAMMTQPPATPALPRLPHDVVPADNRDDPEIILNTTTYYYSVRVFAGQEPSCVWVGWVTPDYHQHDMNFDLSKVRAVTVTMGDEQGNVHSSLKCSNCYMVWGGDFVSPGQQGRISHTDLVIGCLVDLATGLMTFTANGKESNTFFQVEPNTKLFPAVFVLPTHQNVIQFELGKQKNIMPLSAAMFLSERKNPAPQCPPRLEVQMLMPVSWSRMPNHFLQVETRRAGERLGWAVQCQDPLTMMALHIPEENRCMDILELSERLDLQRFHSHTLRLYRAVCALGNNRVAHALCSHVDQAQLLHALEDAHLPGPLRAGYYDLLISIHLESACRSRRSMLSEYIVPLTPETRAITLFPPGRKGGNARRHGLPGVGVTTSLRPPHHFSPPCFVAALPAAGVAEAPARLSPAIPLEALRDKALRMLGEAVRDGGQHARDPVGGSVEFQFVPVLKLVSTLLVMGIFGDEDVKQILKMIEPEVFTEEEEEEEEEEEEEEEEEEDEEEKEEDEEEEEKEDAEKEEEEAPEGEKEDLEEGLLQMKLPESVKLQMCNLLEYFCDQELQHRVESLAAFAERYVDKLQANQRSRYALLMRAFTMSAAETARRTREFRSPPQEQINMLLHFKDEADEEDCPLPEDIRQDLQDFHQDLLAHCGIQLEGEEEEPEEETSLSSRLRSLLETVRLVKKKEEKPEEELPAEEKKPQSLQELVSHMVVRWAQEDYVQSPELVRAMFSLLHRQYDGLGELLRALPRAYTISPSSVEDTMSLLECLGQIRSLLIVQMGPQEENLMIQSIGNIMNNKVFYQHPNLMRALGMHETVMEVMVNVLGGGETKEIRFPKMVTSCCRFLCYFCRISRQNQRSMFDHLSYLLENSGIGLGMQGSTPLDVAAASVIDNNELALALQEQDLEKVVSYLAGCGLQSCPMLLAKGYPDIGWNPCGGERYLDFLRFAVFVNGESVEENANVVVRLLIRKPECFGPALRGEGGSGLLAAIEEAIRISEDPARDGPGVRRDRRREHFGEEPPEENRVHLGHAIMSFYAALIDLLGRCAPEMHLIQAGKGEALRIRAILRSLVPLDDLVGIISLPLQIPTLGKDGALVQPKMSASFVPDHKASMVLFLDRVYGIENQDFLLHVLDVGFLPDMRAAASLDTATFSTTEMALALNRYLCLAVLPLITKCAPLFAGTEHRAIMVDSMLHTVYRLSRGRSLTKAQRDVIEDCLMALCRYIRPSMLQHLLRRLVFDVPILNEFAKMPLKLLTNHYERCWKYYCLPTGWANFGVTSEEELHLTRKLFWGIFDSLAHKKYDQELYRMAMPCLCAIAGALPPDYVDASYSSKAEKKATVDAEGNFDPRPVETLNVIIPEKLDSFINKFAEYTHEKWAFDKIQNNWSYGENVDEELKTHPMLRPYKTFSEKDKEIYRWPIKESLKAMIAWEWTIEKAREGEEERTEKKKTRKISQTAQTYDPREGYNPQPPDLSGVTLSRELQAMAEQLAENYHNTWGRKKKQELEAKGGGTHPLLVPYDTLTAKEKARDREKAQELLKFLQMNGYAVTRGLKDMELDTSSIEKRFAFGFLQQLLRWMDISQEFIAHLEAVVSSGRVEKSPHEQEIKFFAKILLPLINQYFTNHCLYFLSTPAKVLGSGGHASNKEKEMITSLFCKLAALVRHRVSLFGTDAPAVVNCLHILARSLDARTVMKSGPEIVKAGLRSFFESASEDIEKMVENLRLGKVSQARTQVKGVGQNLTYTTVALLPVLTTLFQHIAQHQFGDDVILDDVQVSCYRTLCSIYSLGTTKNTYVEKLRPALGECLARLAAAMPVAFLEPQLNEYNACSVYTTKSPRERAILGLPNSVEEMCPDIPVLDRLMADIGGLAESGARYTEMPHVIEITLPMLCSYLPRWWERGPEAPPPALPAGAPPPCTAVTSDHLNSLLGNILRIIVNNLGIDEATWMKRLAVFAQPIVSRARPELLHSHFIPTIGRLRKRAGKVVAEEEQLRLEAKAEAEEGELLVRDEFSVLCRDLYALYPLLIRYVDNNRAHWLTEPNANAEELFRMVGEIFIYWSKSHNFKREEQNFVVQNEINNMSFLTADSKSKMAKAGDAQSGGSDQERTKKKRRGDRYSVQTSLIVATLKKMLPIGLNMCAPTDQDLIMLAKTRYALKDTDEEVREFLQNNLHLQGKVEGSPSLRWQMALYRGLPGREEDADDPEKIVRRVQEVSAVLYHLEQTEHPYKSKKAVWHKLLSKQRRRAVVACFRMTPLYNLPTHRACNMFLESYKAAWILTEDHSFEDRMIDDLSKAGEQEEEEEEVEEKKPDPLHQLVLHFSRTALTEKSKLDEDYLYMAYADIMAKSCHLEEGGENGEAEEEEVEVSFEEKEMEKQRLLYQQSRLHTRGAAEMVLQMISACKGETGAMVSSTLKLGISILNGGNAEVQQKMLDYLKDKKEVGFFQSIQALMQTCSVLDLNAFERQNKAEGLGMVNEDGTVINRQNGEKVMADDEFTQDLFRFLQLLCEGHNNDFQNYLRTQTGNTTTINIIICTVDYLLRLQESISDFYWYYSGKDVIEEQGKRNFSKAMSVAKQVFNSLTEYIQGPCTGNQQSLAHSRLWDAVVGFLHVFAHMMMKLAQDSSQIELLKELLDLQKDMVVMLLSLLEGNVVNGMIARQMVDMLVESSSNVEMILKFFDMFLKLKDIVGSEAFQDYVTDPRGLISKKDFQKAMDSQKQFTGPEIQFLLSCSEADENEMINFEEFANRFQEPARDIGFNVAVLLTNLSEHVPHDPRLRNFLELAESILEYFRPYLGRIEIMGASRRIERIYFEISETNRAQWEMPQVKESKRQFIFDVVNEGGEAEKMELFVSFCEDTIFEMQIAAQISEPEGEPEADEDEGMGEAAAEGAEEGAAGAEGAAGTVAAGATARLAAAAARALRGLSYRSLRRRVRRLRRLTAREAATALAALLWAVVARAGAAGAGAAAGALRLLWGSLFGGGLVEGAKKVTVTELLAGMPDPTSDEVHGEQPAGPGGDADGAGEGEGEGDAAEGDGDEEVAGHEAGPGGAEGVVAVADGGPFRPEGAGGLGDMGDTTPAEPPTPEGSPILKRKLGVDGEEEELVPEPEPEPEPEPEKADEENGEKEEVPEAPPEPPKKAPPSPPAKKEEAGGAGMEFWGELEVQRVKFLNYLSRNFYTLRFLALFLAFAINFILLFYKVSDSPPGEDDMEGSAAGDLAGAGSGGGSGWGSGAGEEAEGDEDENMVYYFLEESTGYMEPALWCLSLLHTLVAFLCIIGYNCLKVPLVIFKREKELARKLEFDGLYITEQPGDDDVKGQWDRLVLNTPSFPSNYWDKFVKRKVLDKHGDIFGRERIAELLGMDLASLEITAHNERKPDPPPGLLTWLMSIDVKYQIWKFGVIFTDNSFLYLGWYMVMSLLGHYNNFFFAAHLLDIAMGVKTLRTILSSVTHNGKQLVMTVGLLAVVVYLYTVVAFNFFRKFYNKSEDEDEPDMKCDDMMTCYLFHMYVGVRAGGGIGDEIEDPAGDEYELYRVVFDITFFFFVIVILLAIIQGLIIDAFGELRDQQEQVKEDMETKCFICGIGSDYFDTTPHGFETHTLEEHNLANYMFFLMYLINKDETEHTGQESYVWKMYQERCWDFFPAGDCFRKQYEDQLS

FKBP12.6 with AF488 conjugated to amino acid residue 14 (D14-FKBP) (from UniProt P68106 1-108) (natural protein)
FRET efficiency (AF488 on FKBP to Cy3NTA on the His10 tag): 0.18
